{"source": "patent US20250346657A1", "about": "(INTERVET, published 2025)", "binders": {"B1": {"name": "human-feline chimeric Fulranumab (antibody)", "heavy": "EVQLVESGGGLVQPGGSLRLSCAASGFTLRSYSMNWVRQAPGKGLEWVSYISRSSHTIFYADSVKGRFTISRDNAKNSLYLQMDSLRDEDTAMYYCARVYSSGWHVSDYFDYWGQGILVTVSSASTTAPSVFPLAPSCGTTSGATVALACLVLGYFPEPVTVSWNSGALTSGVHTFPAVLQASGLYSLSSMVTVPSSRWLSDTFTCNVAHPPSNTKVDKTVRKTDHPPGPKPCDCPKCPPPEMLGGPSIFIFPPKPKDTLSISRTPEVTCLVVALGPDDSDVQITWFVDNTQVYTAKTSPREEQFASTYRVVSVLPILHQDWLKGKEFKCKVNSKSLPSPIERTISKAKGQPHEPQVYVLPPAQEELSRNKVSVTCLIKSFHPPDIAVEWEITGQPEPENNYRTTPPQLDSDGTYFVYSKLSVDRSHWQRGNTYTCSVSHEALHSHHTQKSLTQSPGK", "light": "AIQLTQSPSSLSASVGDRVTITCRASQGISSALAWYQQKPGKAPKLLIYDASSLESGVPSRFSGSGSGTDFTLTISSLQPEDFATYYCQQFNSYPLTFGGGTKVEIKRSDAQPSVFLFQPSLDELHTGSASIVCILNDFYPKEVNVKWKVDGVVQNKGIQESTTEQNSKDSTYSLSSTLTMSSTEYQSHEKFSCEVTHKSLASTLVKSFNRSECQRE", "notes": "Chains from the 'List of heavy and light chains to make human-feline chimeric and felinized antibodies'; also called Ful Chimeric; Ful Chim"}}, "target": "T1, feline NGF (feline, UniProt A0ABI7YSK6 122-241)", "T1 construct": "domain: C-terminal portion; also called fNGF; feline beta-NGF", "assay": "ELISA, feline NGF"}
{"binder": "B1", "values": [{"measurement": "EC50", "result": "0.018 to 0.019", "unit": "nM"}]}
